Test results from patent US8013115B1, “Use of stabilised synthetic compounds in immunoassay” (Bio-Rad Pasteur, priority 1999, dated 2011).
Blank lines part the entries; values can stand above or below the molecule they belong to. [ ]: non-standard residue; d: D form. Hx = not defined here

Assays:
[1] = assay type: physicochemical
Method: (§1) The stability of the compounds PEP 5, PEP 9 and PEP 10 was evaluated by ELISA assay, with chemiluminescence reading (signal expressed in Relative Luminescence Units or RLU), with the aid of the automated device Access® from the company Beckman, distributed by Bio-Rad (Marnes la Coquette, France), and then compared with that of a prior art noncyclized reference biepitopic compound (TRP 1116 Ac) analysed in the same manner.

[2] = Linearity of the dilution curves / dilutability, ELISA signal (RLU) versus dilution
Method: as §1
Standard for acceptance of the dilutions: the ratio experimental signal/theoretical signal at a given dilution should be equal to 1.00±0.2, for the compound to be dilutable. The dilutions giving signals of less than 100 000 RLU units should not be taken into account.
Results expressed in signal units (RLU)

[3] = target: antibodies of the ELISA assay with chemiluminescence reading on the automated device Access (Beckman); assay: ELISA immunoassay, chemiluminescence, Access device; compound diluted 1/10 000
[4] = target: antibodies of the ELISA assay with chemiluminescence reading on the automated device Access (Beckman); assay: ELISA immunoassay, chemiluminescence, Access device; compound diluted 1/20 000
[5] = target: antibodies of the ELISA assay with chemiluminescence reading on the automated device Access (Beckman); assay: ELISA immunoassay, chemiluminescence, Access device; compound diluted 1/40 000
[6] = target: antibodies of the ELISA assay with chemiluminescence reading on the automated device Access (Beckman); assay: ELISA immunoassay, chemiluminescence, Access device; compound diluted 1/50 000
[7] = target: antibodies of the ELISA assay with chemiluminescence reading on the automated device Access (Beckman); assay: ELISA immunoassay, chemiluminescence, Access device; compound diluted 1/100 000
[8] = target: antibodies of the ELISA assay with chemiluminescence reading on the automated device Access (Beckman); assay: ELISA immunoassay, chemiluminescence, Access device; compound diluted 1/300 000

Molecule: Ac-GSSNYRAYA-(TEPH)-AKK-Hx-PLELAGLG-(FAEL)-QDLCRQ-NH2 (SEQ ID NO: 6) (Ac-GSSNYRAYATEPHAKK[Hx]PLELAGLGFAELQDLCRQ-NH2; not fully specified; printed as Ac-GSSNYRAYA-(TEPH)-AKK-Hx-PLELAGLG-(FAEL)-QDLCRQ-NH2; reading uncertain; also: TEPH, Hx, FAEL described as non-natural linkers) [TRP 1116 Ac]
Stability ratio signal at DO + 24 H/signal at DO [1]: 0.77 | Experimental signal ([2]; dilution 1/10 000): 11 039 697 RLU | Experimental signal ([2]; dilution 1/20 000): 3 779 387 RLU | Experimental signal ([2]; dilution 1/40 000): 1 573 457 RLU | Experimental signal ([2]; dilution 1/50 000): 1 125 417 RLU | Experimental signal ([2]; dilution 1/100 000): 471 714 RLU | Experimental signal ([2]; dilution 1/300 000): 132 054 RLU

Experimental signal (RLU) [3]: 1.1e+07 RLU | Experimental signal (RLU) [4]: 3.78e+06 RLU | Experimental signal (RLU) [5]: 1.57e+06 RLU | Experimental signal (RLU) [6]: 1.13e+06 RLU | Experimental signal (RLU) [7]: 472000 RLU | Experimental signal (RLU) [8]: 132000 RLU
B1: peptide TRP 1116 Ac: Ac-…-(TEPH)-AKK-Hx-PLELAGLG-(FAEL)-QDLCRQ-NH2 (peptide)
peptide: Ac-GSSNYRAYATEPHAKK[Hx]PLELAGLGFAELQDLCRQ-NH2
modifications: reading uncertain; also: printed as Ac-GSSNYRAYA-(TEPH)-AKK-Hx-PLELAGLG-(FAEL)-QDLCRQ-NH2
